Measurements reported in patent US20210032312A1 (Janssen / Centocor, published 2021).
Changes are numbered by the printed parent chain. Numbers in names are those of the source. Values belong to the binder of their own block, whether it stands above or below them.

Experiments:
[1] = molecular target: T1, human CD8A-Fc (recombinant human CD8 alpha fused to Fc fragment of human IgG1) (human, UniProt P01732 22-182, limits assumed); assay: SPR on recombinant human CD8 alpha after DFO conjugation, lower affinity population
T1 construct: SPR ligand, captured by goat anti-human Fc; also called hCD8A-Fc; recombinant CD8 alpha; not shown: linker with flag (and polyhistidine) tag and Fc fragment of human IgG1; depends on which of the two constructs was used
Experimental: (§1) Data analyses were performed using Bio-Rad ProteOn Manager software (version 3.1.0.6). Raw data were double referenced by subtraction of the interspot (empty chip surface, no protein immobilized or captured) signals to correct the non-specific binding of the FN3 domain to the pre-coated GAH-Fc IgG surface, followed by a double referencing using the buffer blank response (to correct for any baseline drift resulting from ligand dissociation over time). […] Given that the GAH-Fc capture of hCD8A-Fc format is the least disruptive relative to other formats in introducing potential experimental artifacts (such as ligand activity loss and/or artificial eptiopes/heterogeneous ligand population due to amine coupling), it is considered that the results from the GAH-Fc capture experiments reported here represent the most reliable ProteOn SPR data, despite the non-conforming 1:1 Langmuir fits observed in many instances. A heterogeneous ligand model was chosen to fit the data assuming two different ligand species, either due to the heterogeneity in the ligand protein population or due to potential different mechanisms for each FN3 domain binding to the 2 hCD8A monomers in the Fc fusion protein. In this case, because each anti-CD8A FN3 domain would have separate affinities, the resultant sensorgram reflects the sum of two independent reactions with two sets of rate constants, which were reported for each FN3 domain binding.
(§2) Following conjugation to DFO, the binding of each anti-CD8A FN3 domain to recombinant human CD8 alpha was assessed by surface plasmon resonance as previously described. All samples retained tight binding to human CD8A following mutation of E54 to Cys and conjugation to DFO (Table 8).

[2] = molecular target: T1, human CD8A-Fc (recombinant human CD8 …); assay: SPR on recombinant human CD8 alpha after DFO conjugation, higher affinity population
Experimental: as §1, §2

[3] = molecular target: T2, cynomolgus monkey CD8A on cyno CD8+ T cells (cynomolgus monkey, UniProt P01732 23-235 (human entry)); assay: flow cytometry on cyno CD8+ T cells
T2 construct: also called cyno T-cells; Cyno CD8alpha
Experimental: (§3) A full dose response binding curve was generated for the nineteen selected anti-CD8A FN3 domains. Each candidate was diluted to 20 μM in PBS followed by a 1:3 dilution series to generate either an 11-point or an 18-point dose response curve. Human or cyno CD8+ T cells were incubated with the diluted FN3 domain for 1 hour at 4° C. Cells were washed once with PBS and incubated with an anti-centyrin antibody (PAB25) for 1 hour at 4° C. The cells were washed twice with PBS, followed by incubation with a PE-secondary, anti-CD3-PacB, anti-CD4-APC, and a viability dye. Finally, cells were washed and resuspended in PBS for flow cytometric analysis using a BD Canto Instrument. CD8 T cells were defined as live CD3+CD4− cells. Median fluorescence intensity of the bound Centyrins (PE channel) and % of cells showing positive staining calculated using Cytobank software. Results were graphed using Prism and EC₅₀ values were calculated using the 4 parameter dose response variable slope equation.

[4] = molecular target: T3, human CD8A on primary human CD8+ T cells (human, UniProt P01732 22-235); assay: MSD-CAT equilibrium cell binding, primary human CD8 T cells
T3 construct: whole, on cells; also called Human T-cells; CD8 alpha
Experimental: A MesoScale Discovery-Cell Affinity Technology (MSD-CAT) based equilibrium cell-binding assay was performed to determine the affinity of the top six anti-CD8A candidates binding to primary human cytotoxic T cell surface CD8A receptors. Each anti-CD8A FN3 domain at a constant concentration of […] was pre-incubated with 10 different concentrations of primary cytotoxic CD8 T cells (columns 2-11 in a row). Cell viability was checked prior to the binding measurements and a >85% viability was desired for valid analysis. Since these cells were from different donors, in case of donor-to-donor variations, only cells of the same donors were combined together. Each individual anti-CD8A FN3 domain binding was measured in replicates using cells from the same donors. Cells and FN3 domains were incubated overnight at 4° C. on a rotator to reach equilibrium. Following the incubation the cells were spun down along with cell bound anti-CD8A FN3 domains and the unbound (free) anti-CD8A FN3 domains in the supernatants is quantified using MSD assays where biotinylated recombinant hCD8A-Fc protein was captured at 0.6 ug/mL in assay buffer to streptavidin MSD plates overnight ˜16 hours at 4° C. After blocking the plate, supernatant with free anti-CD8A FN3 domains was added to the plate and incubated for 1 hr, then followed by SulfoTag pAb139 (In-house) detection at 1.6 ug/ml. A buffer control without any FN3 domain and hCD8A (plate background binding control) in column 1 and FN3 domain alone control without hCD8A (100% free/unbound) in column 12 were included. Mouse Anti-hCD8A mAb (mIgG1k, BD Biosciences, cat #555364, clone RPA-T8) was included as a positive control. Tencon27 was included in the initial assay validation as a negative control and no significant binding was observed, and therefore, was not included in the later cell binding due to the cell availability. Plates were read immediately on the MSD Sector Imager 6000™ Reader for luminescence levels after adding MSD Read Buffer by diluting 1:4 of stock into H2O.
Raw MSD data were exported and analysed in Prism using a non-linear fit with variable slope function to derive the Bmax and Hillslope values. Only those with converged Bmax values and hillslope within the range of −1.5˜−0.5 (ideal −1.0) will be considered for further analysis.

[5] = molecular target: T3, human CD8A on primary human CD8+ T cells; assay: flow cytometry on human CD8+ T cells
Experimental: as §3

[6] = molecular target: T1, human CD8A-Fc (recombinant human CD8 …); assay: SPR (ProteOn), captured hCD8A-Fc, heterogeneous ligand fit, lower affinity population
Experimental: as §1, with “Human CD8A-Fc was then captured at five surface densities ranging from 200 to 1200 response units, leaving the 6th channel as empty channel control for GAH-Fc IgG surface. Binding was measured by flowing five different concentrations of anti-CD8A FN3 domains (1 μM diluted in a 3-fold dilution series) as analytes simultaneously in the horizontal orientation over the captured hCD8A-Fc surfaces, with a sixth analyte channel containing only running buffer PBST. All interactions were measured at 100 uL/min flow rate with association and dissociation times being 4, 30 minutes respectively. […] Data” for “Data”, “protein.” for “protein. In this case, because each anti-CD8A FN3 domain would have separate affinities, the resultant sensorgram reflects the sum of two independent reactions with two sets of rate constants, which were reported for each FN3 domain binding.”

[7] = molecular target: T1, human CD8A-Fc (recombinant human CD8 …); assay: SPR, dissociation rate on recombinant CD8 alpha
[8] = molecular target: T1, human CD8A-Fc (recombinant human CD8 …); assay: SPR (ProteOn), captured hCD8A-Fc, heterogeneous ligand fit, higher affinity population
Experimental: as §1, with “Human CD8A-Fc was then captured at five surface densities ranging from 200 to 1200 response units, leaving the 6th channel as empty channel control for GAH-Fc IgG surface. Binding was measured by flowing five different concentrations of anti-CD8A FN3 domains (1 μM diluted in a 3-fold dilution series) as analytes simultaneously in the horizontal orientation over the captured hCD8A-Fc surfaces, with a sixth analyte channel containing only running buffer PBST. All interactions were measured at 100 uL/min flow rate with association and dissociation times being 4, 30 minutes respectively. […] Data” for “Data”, “protein.” for “protein. In this case, because each anti-CD8A FN3 domain would have separate affinities, the resultant sensorgram reflects the sum of two independent reactions with two sets of rate constants, which were reported for each FN3 domain binding.”

T2 sequence (P01732 other isoform, or with tags, fused parts or gaps limits assumed): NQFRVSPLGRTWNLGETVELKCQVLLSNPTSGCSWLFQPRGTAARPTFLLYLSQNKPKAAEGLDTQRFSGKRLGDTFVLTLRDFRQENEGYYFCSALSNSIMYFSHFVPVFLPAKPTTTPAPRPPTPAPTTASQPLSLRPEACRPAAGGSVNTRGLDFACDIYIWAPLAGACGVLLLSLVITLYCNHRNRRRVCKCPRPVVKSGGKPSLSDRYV
T3 sequence (P01732 22-235): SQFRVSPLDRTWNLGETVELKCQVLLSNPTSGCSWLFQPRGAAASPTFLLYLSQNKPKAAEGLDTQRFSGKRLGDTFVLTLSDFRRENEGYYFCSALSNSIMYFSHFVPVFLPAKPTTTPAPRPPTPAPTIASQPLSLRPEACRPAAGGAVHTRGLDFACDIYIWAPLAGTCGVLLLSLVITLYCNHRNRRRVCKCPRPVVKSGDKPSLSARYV
T1 sequence (P01732 22-182 limits assumed): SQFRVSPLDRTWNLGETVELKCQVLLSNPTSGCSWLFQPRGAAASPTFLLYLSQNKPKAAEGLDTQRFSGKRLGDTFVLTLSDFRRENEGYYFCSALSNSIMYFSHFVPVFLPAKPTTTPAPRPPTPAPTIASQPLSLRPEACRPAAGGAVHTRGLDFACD

Kd [1]: 89.1 nM
koff [1]: 0.000975 s⁻¹
kon [1]: 10900 M⁻¹ s⁻¹
Kd [2]: 1.55 nM
koff [2]: 0.000131 s⁻¹
kon [2]: 84500 M⁻¹ s⁻¹
B1: CD8S367-DFO (designed binder)
chain: LPAPKNLVVSRVTEDSARLSWTAPDAAFDSFAIAYPEWPPQGEAIVLTVPGSCRSYDLTGLKPGTEYFVVIYGVKGGSYSAPLSAIFTT
modifications: deferoxamine (DFO) conjugated to the free cysteine introduced by E54C
notes: DFO conjugate of CD8S367

EC50 [3]: 50.8 nM
Kd [4]: 0.225 nM
EC50 [5]: 194 nM
B2: CD8S367 (designed binder)
chain: B1 chain
notes: P282DR9P1359_F7 with E54C; the entry holds the mutation

Kd [1]: 13.6 nM
koff [1]: 9.98e-05 s⁻¹
kon [1]: 7320 M⁻¹ s⁻¹
Kd [2]: 0.23 nM
koff [2]: 2.53e-05 s⁻¹
kon [2]: 108000 M⁻¹ s⁻¹
B3: CD8S368-DFO (designed binder)
chain: B1 chain with A32Q, Q41P, V70I, Y72Q, S78V, Y79E, A81W
modifications: deferoxamine (DFO) conjugated to the free cysteine introduced by E54C
notes: DFO conjugate of CD8S368

Kd [6]: 12 nM
koff [6]: 0.000365 s⁻¹
kon [6]: 40300 M⁻¹ s⁻¹
koff [7]: 0.000339 s⁻¹
Kd [8]: 0.5 nM
koff [8]: 7.99e-05 s⁻¹
kon [8]: 404000 M⁻¹ s⁻¹
B4: P282DR9P1359_F7 (designed binder)
chain: B1 chain with C53E
notes: FN3 domain (Centyrin); purified as His-tagged protein, tag not in the entry

Kd [1]: ≤ 3.4 nM
koff [1]: ≤ 1e-05 s⁻¹
kon [1]: 2870 M⁻¹ s⁻¹
Kd [2]: ≤ 0.3 nM
koff [2]: ≤ 1e-05 s⁻¹
kon [2]: 37300 M⁻¹ s⁻¹
B6: CD8S369-DFO (designed binder)
chain: LPAPKNLVVSRVTEDSARLSWAKRPGAFDSFLIQYQESEKVGEAIVLTVPGSCRSYDLTGLKPGTEYTVSIYGVDVKYDIDSRPISSNPLSAIFTT
modifications: deferoxamine (DFO) conjugated to the free cysteine introduced by E54C
notes: DFO conjugate of CD8S369

EC50 [3]: 69.5 nM
Kd [4]: 0.123 nM
EC50 [5]: 163 nM
B8: CD8S366 (designed binder)
chain: LPAPKNLVVSRVTEDSARLSWTAPDAAFDSFWITYPEWPDPGGEAIVLTVPGSCRSYDLTGLKPGTEYFVVIYGVKGGEIYSPLSAIFTT
notes: P282DR9P1359_C5 with E54C; the entry holds the mutation

Kd [1]: 18.2 nM
koff [1]: 0.000106 s⁻¹
kon [1]: 5850 M⁻¹ s⁻¹
Kd [2]: 0.9 nM
koff [2]: 7.01e-05 s⁻¹
kon [2]: 79500 M⁻¹ s⁻¹
B9: CD8S366-DFO (designed binder)
chain: B8 chain
modifications: deferoxamine (DFO) conjugated to the free cysteine introduced by E54C
notes: DFO conjugate of CD8S366

Kd [1]: 9.73 nM
koff [1]: 4.29e-05 s⁻¹
kon [1]: 4410 M⁻¹ s⁻¹
Kd [2]: 0.6 nM
koff [2]: 4.18e-05 s⁻¹
kon [2]: 68000 M⁻¹ s⁻¹
B14: CD8S365-DFO (designed binder)
chain: LPAPKNLVVSRVTEDSARLSWTAPDAAFDSFGILYYEPVDSGEAITLPVPGSCRSYDLTGLKPGTEYWVVITGVKGGAPSTPLGTIFTT
modifications: deferoxamine (DFO) conjugated to the free cysteine introduced by E54C
notes: DFO conjugate of CD8S365

Continued, binder first:

B5: P283AR9P1362_D6 (designed binder)
chain: B6 chain with C53E
notes: as for B4
Kd [6]: 0.98 nM
koff [6]: 3.12e-05 s⁻¹
kon [6]: 56200 M⁻¹ s⁻¹
Kd [8]: 0.03 nM
koff [8]: 1e-06 s⁻¹
kon [8]: 155000 M⁻¹ s⁻¹

B7: P282DR9P1359_C5 (designed binder)
chain: B8 chain with C54E
notes: as for B4
Kd [6]: 6.5 nM
koff [6]: 0.000127 s⁻¹
kon [6]: 19200 M⁻¹ s⁻¹
koff [7]: 0.000147 s⁻¹
Kd [8]: 0.02 nM
koff [8]: 5.79e-06 s⁻¹
kon [8]: 300000 M⁻¹ s⁻¹

B10: P282DR9P1359_G7 (designed binder)
chain: LPAPKNLVVSRVTEDSARLSWTAPDAAFDSFAITYIEKEHIEDGEAIVLTVPGSERSYDLTGLKPGTEYWVPIWGVKGGANSWPLSAIFTT
notes: as for B4
Kd [6]: 2.1 nM
koff [6]: 5.51e-05 s⁻¹
kon [6]: 68400 M⁻¹ s⁻¹
koff [7]: 1.06e-05 s⁻¹
Kd [8]: 0.05 nM
koff [8]: 1.49e-05 s⁻¹
kon [8]: 276000 M⁻¹ s⁻¹

B11: CD8S370-DFO (designed binder)
chain: B10 chain with E55C
modifications: deferoxamine (DFO) conjugated to the free cysteine introduced by E54C
notes: DFO conjugate of CD8S370
Kd [1]: 13 nM
koff [1]: 7.65e-05 s⁻¹
kon [1]: 5910 M⁻¹ s⁻¹
Kd [2]: ≤ 0.3 nM
koff [2]: ≤ 2e-05 s⁻¹
kon [2]: 46400 M⁻¹ s⁻¹

B12: P282ER9P1360_C8 (designed binder)
chain: B14 chain with C53E
notes: as for B4
Kd [6]: 4.1 nM
koff [6]: 9.52e-05 s⁻¹
kon [6]: 30900 M⁻¹ s⁻¹
koff [7]: 0.000179 s⁻¹
Kd [8]: 0.2 nM
koff [8]: 4.71e-05 s⁻¹
kon [8]: 218000 M⁻¹ s⁻¹

B13: CD8S365 (designed binder)
chain: B14 chain
notes: P282ER9P1360_C8 with E54C; the entry holds the mutation
EC50 [3]: 124 nM
Kd [4]: 0.167 nM
EC50 [5]: 556 nM
